These results are taken from patent US20090304687A1, “METHODS OF USING CD40 BINDING AGENTS” (Seattle Genetics , Inc., priority 2005, published 2009).

One assay deals with Ramos cells. Kind of assay: In vitro drug combinations with SGN-40, 3H-thymidine proliferation, Combination Index. Type of assay: cell-based. Particulars: for Combination Index at ED50 / Combination Index at ED75 / Combination Index at ED90: drug with cross-linked SGN-40 (30.0-0.0586 ng/ml), Ramos cells 2% FBS, 72 hours.
Assay [1] has as its target CD40 immobilized on microassay plates (UniProt P25942 21-193, limits assumed). In words: serially diluted antibody on CD40 immobilized on microassay plates. On the procedure:
Antibodies constructed using these variant light and heavy chain variable domains were analyzed for binding activity. Each antibody was diluted to equivalent concentrations, and then serially diluted. The diluted antibodies were assayed for binding to CD40 immobilized on microassay plates.

For a further assay, the target named is CD40 (Homo sapiens, UniProt P25942). Kind of assay: Binding of variant antibodies to CD40 immobilized on microassay plates. Also on record: Binding Data 1 / Binding Data 2 / Binding Data 3: unit not given here. Particulars: for Binding Data 1 / Binding Data 2: affinity binding data, serially diluted antibody on immobilized CD40; for binding activity compared with the parent murine antibody: in words. As for the experimental part:
Antibodies constructed using these variant light and heavy chain variable domains were analyzed for binding activity. Each antibody was diluted to equivalent concentrations, and then serially diluted. The diluted antibodies were assayed for binding to CD40 immobilized on microassay plates. Affinity binding data for the variant antibodies are shown below in Table 3.

The mark [2] stands for this setting: drug with cross-linked SGN-40, Ramos cells.

Values joined by “and” are separate entries in the source; they are usually repeats but may differ in a detail not shown here. Identical values can stand only once. “Also recorded” adds a separate entry of the source. Like-named read-outs stand apart in the source and are kept apart here.

Chain of CD40 immobilized on microassay plates (P25942 21-193 limits assumed): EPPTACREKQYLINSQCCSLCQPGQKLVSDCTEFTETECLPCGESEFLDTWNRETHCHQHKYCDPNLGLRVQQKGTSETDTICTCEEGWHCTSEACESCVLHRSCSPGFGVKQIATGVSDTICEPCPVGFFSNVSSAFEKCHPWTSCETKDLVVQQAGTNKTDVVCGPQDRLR
Chain of CD40 (P25942 21-277): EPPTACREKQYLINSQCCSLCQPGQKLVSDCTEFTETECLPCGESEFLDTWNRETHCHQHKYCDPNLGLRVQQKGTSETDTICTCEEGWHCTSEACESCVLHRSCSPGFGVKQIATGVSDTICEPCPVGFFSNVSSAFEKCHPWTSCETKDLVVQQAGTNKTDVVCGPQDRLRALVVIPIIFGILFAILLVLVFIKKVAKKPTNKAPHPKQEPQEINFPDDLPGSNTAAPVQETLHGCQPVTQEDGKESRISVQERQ
Method for Ramos cells: Cells were treated for 72 hours, then labeled with ^3H-thymidine for 4 hours to measure proliferation rates. Dose response curves of drugs alone and in combination with the humanized CD40 antibody were reduced in Excel, and Combination Indices (CI) determined using the Calcusyn analysis package (Biosoft). […] CI values equal to 1.0 indicate an additive integration. For these studies, n=3 unless otherwise indicated.

Regarding Bleomycin, the “Effect (of combination with SGN-40)” value with Ramos cells is given as “Synergistic”.
For the molecule `N[C@@H](Cc1ccc(N(CCCl)CCCl)cc1)C(=O)O` [Melphalan], the “Effect (of combination with SGN-40)” value in the assay with Ramos cells (setting [2]) is recorded as “Additive”; in the assay on Ramos cells (drug with cross-linked SGN-40, Ramos cells, listed as melphalan), “additive”.
`Nc1ccn([C@@H]2O[C@H](CO)[C@@H](O)[C@@H]2O)c(=O)n1` [Ara-C]: in the assay with Ramos cells, the “Combination Index at ED50” value came to 0.95, the “Combination Index at ED75” value is recorded as 0.90 and the “Combination Index at ED90” value was 0.90. For the same molecule, the “Effect (of combination with SGN-40)” value in the assay with Ramos cells (setting [2]) was “Additive”.
With `COc1cc([C@@H]2c3cc4c(cc3[C@@H](O[C@@H]3O[C@@H]5CO[C@@H](C)O[C@H]5[C@H](O)[C@H]3O)[C@H]3COC(=O)[C@H]23)OCO4)cc(OC)c1O` [Etoposide], the “Effect (of combination with SGN-40)” value with Ramos cells (setting [2]) is reported as “Antagonistic. → Add”.
With TNFα, in the assay on Ramos cells, the “Combination Index at ED50” value was 0.70, the “Combination Index at ED75” value came out at 0.61 and the “Combination Index at ED90” value was determined as 0.60. The “Effect (of combination with SGN-40)” value with Ramos cells (setting [2]) is given as “Synergistic”.
`O=C1c2c(O)ccc(O)c2C(=O)c2c(NCCNCCO)ccc(NCCNCCO)c21` [Mitoxantrone]: the “Effect (of combination with SGN-40)” value with Ramos cells (setting [2]) was “Syn. → Add”; in the assay with Ramos cells (drug with cross-linked SGN-40, Ramos cells, listed as mitoxantrone), “additive”.
As for `N.N.[Cl][Pt][Cl]` [Cisplatin], in the assay on Ramos cells, the “Combination Index at ED50” value is recorded as 1.04, the “Combination Index at ED75” value is on record as 0.89 and the “Combination Index at ED90” value turned out to be 0.78. In addition, the “Effect (of combination with SGN-40)” value in the assay with Ramos cells (setting [2]) was “Additive → Syn”. In addition, the “Effect (of combination with SGN-40)” value in the assay on Ramos cells (drug with cross-linked SGN-40, Ramos cells, listed as cisplatin) is recorded as “additive”.

B1: hu sgn-1 (antibody, V domains shown)
VH: EVQLVESGGGLVQPGGSLRLSCAASGYSFTGYYIHWVRQAPGKGLEWVARVIPNNGGTSYNQKFKGRFTISVDNSKNTLYLQMNSLRAEDTAVYYCAREGIYWWGQGTLVTVS
VL: DIQMTQSPSSLSASVGDRVTITCRSSQSLVHSNGNTFLHWYQQKPGKAPKLLIYTVSNRFSGVPSRFSGSGSGTDFTLTISSLQPEDFATYYCSQTTHVPWTFGQGTKVEIKR
As to B1, in assay [1], the “Binding Data 1” value is 23.6 and the “Binding Data 2” value was 19.3.

B2: hu sgn-14: humanized CD40 antibody variant, heavy SEQ ID NO: 7 (I70L R72V L79A), light SEQ ID NO: 14 (antibody, V domains shown)
VH: EVQLVESGGGLVQPGGSLRLSCAASGYSFTGYYIHWVRQAPGKGLEWVARVIPNNGGTSYNQKFKGRFTLSVDNSKNTAYLQMNSLRAEDTAVYYCAREGIYWWGQGTLVTVS
VL: DIQMTQSPSSLSASVGDRVTITCRSSQSLVHSNGNTFLHWYQQKPGKAPKLLIYTVSNRFSGVPSRFSGSGSGTDFTLTISSLQPEDFATYYCSQTTHVPWTFGQGTKVEIKR
On to B2, for which, in the assay with CD40, the “Binding Data 1” value was 1/11 and 0.86 and 0.77; the “Binding Data 2” value is 0.69 and 0.77.

B3: hu sgn-16: humanized CD40 antibody variant, heavy SEQ ID NO: 9 (F68A I69L R72V), light SEQ ID NO: 14 (antibody, V domains shown)
VH: EVQLVESGGGLVQPGGSLRLSCAASGYSFTGYYIHWVRQAPGKGLEWVARVIPNNGGTSYNQKFKGRATLSVDNSKNTLYLQMNSLRAEDTAVYYCAREGIYWWGQGTLVTVS
VL: DIQMTQSPSSLSASVGDRVTITCRSSQSLVHSNGNTFLHWYQQKPGKAPKLLIYTVSNRFSGVPSRFSGSGSGTDFTLTISSLQPEDFATYYCSQTTHVPWTFGQGTKVEIKR
As for B3, in the assay with CD40, the “Binding Data 2” value is 1.82 and 1.83.

B4: hu sgn-19: humanized CD40 antibody variant, heavy SEQ ID NO: 7, light SEQ ID NO: 16 (Y92F) (antibody, V domains shown)
VH: EVQLVESGGGLVQPGGSLRLSCAASGYSFTGYYIHWVRQAPGKGLEWVARVIPNNGGTSYNQKFKGRFTLSVDNSKNTAYLQMNSLRAEDTAVYYCAREGIYWWGQGTLVTVS
VL: DIQMTQSPSSLSASVGDRVTITCRSSQSLVHSNGNTFLHWYQQKPGKAPKLLIYTVSNRFSGVPSRFSGSGSGTDFTLTISSLQPEDFATYFCSQTTHVPWTFGQGTKVEIKR
On to B4, for which the “binding activity compared with the parent murine antibody” value in the assay with CD40 is on record as “approaching that of the parent murine antibody”.

B5: hu sgn-22 (antibody, V domains shown)
VH: EVQLVESGGGLVQPGGSLRLSCAASGYSFTGYYIHWVRQAPGKGLEWVARVIPNAGGTSYNQKFKGRFTLSVDNSKNTAYLQMNSLRAEDTAVYYCAREGIYWWGQGTLVTVS
VL: DIQMTQSPSSLSASVGDRVTITCRSSQSLVHSNGNTFLHWYQQKPGKAPKLLIYTVSNRFSGVPSRFSGSGSGTDFTLTISSLQPEDFATYYCSQTTHVPWTFGQGTKVEIKR
B5: in the assay with CD40, the “Binding Data 1” value is 1.44 and 1.41 and 1.80 and 0.93; the “binding activity compared with the parent murine antibody” value was “approaching that of the parent murine antibody”. For the same molecule, the “Binding Data 2” value in assay [1] turned out to be 0.84.

B6: hu sgn-23 (antibody, V domains shown)
VH: EVQLVESGGGLVQPGGSLRLSCAASGYSFTGYYIHWVRQAPGKGLEWVARVIPNQGGTSYNQKFKGRFTLSVDNSKNTAYLQMNSLRAEDTAVYYCAREGIYWWGQGTLVTVS
VL: DIQMTQSPSSLSASVGDRVTITCRSSQSLVHSNGNTFLHWYQQKPGKAPKLLIYTVSNRFSGVPSRFSGSGSGTDFTLTISSLQPEDFATYYCSQTTHVPWTFGQGTKVEIKR
As to B6, in the assay with CD40, the “binding activity compared with the parent murine antibody” value is reported as “approaching that of the parent murine antibody”. For the same molecule, the “Binding Data 2” value in assay [1] was 0.9.

B7: hu sgn-18 (antibody, V domains shown)
VH: EVQLVESGGGLVQPGGSLRLSCAASGYSFTGYYIHWVRQAPGKGLEWVARVIPNNGGTSYNQKFKGRATLSVDNSKNTAYLQMNSLRAEDTAVYYCAREGIYWWGQGTLVTVS
VL: DIQMTQSPSSLSASVGDRVTITCRSSQSLVHSNGNTFLHWYQQKPGKAPKLLIYTVSNRFSGVPSRFSGSGSGTDFTLTISSLQPEDFATYFCSQTTHVPWTFGQGTKVEIKR
For B7, in the assay with CD40, the “Binding Data 1” value is 0.96 and 0.67; the “binding activity compared with the parent murine antibody” value is “approaching that of the parent murine antibody; also recorded: more closely approaching that of the parent murine antibody”. Moreover, in assay [1], the “Binding Data 2” value was found to be 1.03.

B8: hu sgn-15 (antibody, V domains shown)
VH: EVQLVESGGGLVQPGGSLRLSCAASGYSFTGYYIHWVRQAPGKGLEWVARVIPNNGGTSYNQKFKGRATISVDNSKNTAYLQMNSLRAEDTAVYYCAREGIYWWGQGTLVTVS
VL: DIQMTQSPSSLSASVGDRVTITCRSSQSLVHSNGNTFLHWYQQKPGKAPKLLIYTVSNRFSGVPSRFSGSGSGTDFTLTISSLQPEDFATYYCSQTTHVPWTFGQGTKVEIKR
Turning to B8, in assay [1], the “Binding Data 2” value worked out at 2.71.

B9: hu sgn-17 (antibody, V domains shown)
VH: EVQLVESGGGLVQPGGSLRLSCAASGYSFTGYYIHWVRQAPGKGLEWVARVIPNNGGTSYNQKFKGRATLSVDNSKNTAYLQMNSLRAEDTAVYYCAREGIYWWGQGTLVTVS
VL: DVQVTQSPSSLSASVGDRVTITCRSSQSLVHSNGNTFLHWYQQKPGKAPKLLIYTVSNRFSGVPSRFSGSGSGTDFTLTISSLQPEDFATYYCSQTTHVPWTFGQGTKVEIKR
For B9, the “Binding Data 2” value in assay [1] came out at 3.56.

B10: hu sgn-4 (antibody, V domains shown)
VH: EVQLVESGGGLVQPGGSLRLSCAASGYSFTGYYIHWVRQAPGKGLEWVARVIPNNGGTSYNQKFKGRATLSVDNSKNTAYLQMNSLRAEDTAVYYCAREGIYWWGQGTLVTVS
VL: DIQMTQSPSSLSASVGDRVTITCRSSQSLVHSNGNTFLHWYQQKPGKAPKLLIYTVSNRFSGVPSRFSGSGSGTDFTLTISSLQPEDFATYYCSQTTHVPWTFGQGTKVEIKR
For B10, the “Binding Data 2” value in assay [1] stood at 2.46.

B11: hu sgn-26 (antibody, V domains shown)
VH: EVQLVESGGGLVQPGGSLRLSCAASGYSFTGYYIHWVRQAPGKGLEWVARVIPNAGGTSYNQKFKGRFTLSVDNSKNTAYLQMNSLRAEDTAVYYCAREGIYWWGQGTLVTVS
VL: DIQMTQSPSSLSASVGDRVTITCRSSQSLVHSNGNTFLHWYQQKPGKAPKLLIYTVSNRFSGVPSRFSGSGSGTDFTLTISSLQPEDFATYFCSQTTHVPWTFGQGTKVEIKR
On to B11, for which, in the assay with CD40, the “Binding Data 1” value is 1.02 and 1.06; the “binding activity compared with the parent murine antibody” value is “approaching that of the parent murine antibody; also recorded: more closely approaching that of the parent murine antibody; also recorded: best performance”. Moreover, the “Binding Data 2” value in assay [1] was 0.92.

B12: hu sgn-2 (antibody, V domains shown)
VH: EVQLVESGGGLVQPGGSLRLSCAASGYSFTGYYIHWVRQAPGKGLEWVARVIPNNGGTSYNQKFKGRFTISRDKSKNTLYLQMNSLRAEDTAVYYCAREGIYWWGQGTLVTVS
VL: DIQMTQSPSSLSASVGDRVTITCRSSQSLVHSNGNTFLHWYQQKPGKAPKLLIYTVSNRFSGVPSRFSGSGSGTDFTLTISSLQPEDFATYYCSQTTHVPWTFGQGTKVEIKR
For B12, in assay [1], the “Binding Data 1” value was determined as 471 and the “Binding Data 2” value stood at 371.

B13: SGN-14 (parent murine antibody, donor) (antibody, V domains shown)
VH: EVQLQQSGPDLVKPGASVKISCKASGYSFTGYYIHWVKQSHGKSLEWIGRVIPNNGGTSYNQKFKGKAILTVDKSSSTAYMELRSLTSEDSAVYYCAREGIYWWGHGTTLTVS
VL: DVVVTQTPLSLPVSLGAQASISCRSSQSLVHSNGNTFLHWYLQKPGQSPKLLIYTVSNRFSGVPDRFSGSGSGTDFTLKISRVEAEDLGVYFCSQTTHVPWTFGGGTKLEIQR
notes: Murine monoclonal antibody; also called S2C6; murine CD40 donor antibody
Consider B13, for which, in assay [1], the “Binding Data 1” value came out at 1 and the “Binding Data 2” value came to 1.33.
